Source: patent US20230256114A1, “NOVEL MAYTANSINOIDS AS ADC PAYLOADS AND THEIR USE FOR THE TREATMENT OF CANCER” (priority 2020, published 2023)

Target: T1, Trophoblast cell-surface antigen-2 (Trop-2) (human, UniProt P09758 27-323)
T1 sequence (looked up): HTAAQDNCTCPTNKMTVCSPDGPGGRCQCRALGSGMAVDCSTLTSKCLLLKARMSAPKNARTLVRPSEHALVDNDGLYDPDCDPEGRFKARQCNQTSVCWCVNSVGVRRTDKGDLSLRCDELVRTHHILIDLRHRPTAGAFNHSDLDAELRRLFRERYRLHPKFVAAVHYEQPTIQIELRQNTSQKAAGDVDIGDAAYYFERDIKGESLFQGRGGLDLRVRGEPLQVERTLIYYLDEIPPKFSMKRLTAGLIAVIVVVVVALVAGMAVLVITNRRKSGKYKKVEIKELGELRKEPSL
Assay: cell-based or functional assay

B1: Anti-Trop-2-BI-P207 (antibody, V domains shown)
VH: SALMSRLTISKDTSKNQFSLKLSSVTAADTAVYYCARDENWDGAWFAYWGQGTLVTVSS
VL: DIVMTQSPDSLAVSLGERATINCKSSQSLLNSGTRKNYLAWYQQKPGQPPKLLISWASSRESGVPDRFSGSGSGTDFTLTISSLQAEDVAVYYCKQSYNLFTFGGGTKVEIKR
modifications: BI-P207 maytansinoid drug-linker on cysteines; positions not given; DAR 3.4 or 4.5
For B1, the “IC50 (nM), in vitro cytotoxicity (CCK-8, 72 h), BxPC-3 cells (TROP2 +++), ADC at DAR 3.4” value was 2.09 nM, the “IC50 (nM), in vitro cytotoxicity (CCK-8, 72 h), MDA-MB-468 cells (TROP2 ++), ADC at DAR 4.5” value was 4.29 nM and the “IC50 (nM), in vitro cytotoxicity (CCK-8, 72 h), NCI-N87 cells (TROP2 ++/+), ADC at DAR 3.4” value was 33.8 nM.

B2: Anti-Trop-2-BI-P205 (antibody, V domains shown)
VH: B1 VH
VL: B1 VL
modifications: BI-P205 maytansinoid drug-linker on cysteines; positions not given; DAR 3.6, 4.9 or 7.1
In the case of B2, the “IC50 (nM), in vitro cytotoxicity (CCK-8, 72 h), BxPC-3 cells (TROP2 +++), ADC at DAR 3.6” value is reported as 0.43 nM, the “IC50 (nM), in vitro cytotoxicity (CCK-8, 72 h), BxPC-3 cells (TROP2 +++), ADC at DAR 7.1” value is reported as 0.52 nM and the “IC50 (nM), in vitro cytotoxicity (CCK-8, 72 h), Colo205 cells (TROP2 +), ADC at DAR 7.1” value is reported as 26.1 nM. For the same binder, the “IC50 (nM), in vitro cytotoxicity (CCK-8, 72 h), MDA-MB-468 cells (TROP2 ++), ADC at DAR 4.9” value was 1.58 nM, the “IC50 (nM), in vitro cytotoxicity (CCK-8, 72 h), MDA-MB-468 cells (TROP2 ++), ADC at DAR 7.1” value was 0.47 nM and the “IC50 (nM), in vitro cytotoxicity (CCK-8, 72 h), NCI-N87 cells (TROP2 ++/+), ADC at DAR 3.6” value was 0.282 nM.

B3: Anti-Trop-2-BI-P204 (antibody, V domains shown)
VH: B1 VH
VL: B1 VL
modifications: BI-P204 maytansinoid drug-linker on cysteines; positions not given; DAR 2.8 or 3.9
B3 was tested, and the “IC50 (nM), in vitro cytotoxicity (CCK-8, 72 h), BxPC-3 cells (TROP2 +++), ADC at DAR 2.8” value was 0.38 nM, the “IC50 (nM), in vitro cytotoxicity (CCK-8, 72 h), MDA-MB-468 cells (TROP2 ++), ADC at DAR 3.9” value was 1.81 nM and the “IC50 (nM), in vitro cytotoxicity (CCK-8, 72 h), NCI-N87 cells (TROP2 ++/+), ADC at DAR 2.8” value was 17.6 nM.

B4: Anti-Trop-2-BI-P209 (antibody, V domains shown)
VH: B1 VH
VL: B1 VL
modifications: BI-P209 maytansinoid drug-linker on cysteines; positions not given; DAR 6.2
With B4 the “IC50 (nM), in vitro cytotoxicity (CCK-8, 72 h), Colo205 cells (TROP2 +), ADC at DAR 6.2” value was > 500 nM and the “IC50 (nM), in vitro cytotoxicity (CCK-8, 72 h), MDA-MB-468 cells (TROP2 ++), ADC at DAR 6.2” value was 5.37 nM.

B5: Anti-Trop-2-BI-P208 (antibody, V domains shown)
VH: B1 VH
VL: B1 VL
modifications: BI-P208 maytansinoid drug-linker on cysteines; positions not given; DAR 3.0 or 4.3
B5 was tested, and the “IC50 (nM), in vitro cytotoxicity (CCK-8, 72 h), BxPC-3 cells (TROP2 +++), ADC at DAR 3.0” value was 0.67 nM, the “IC50 (nM), in vitro cytotoxicity (CCK-8, 72 h), MDA-MB-468 cells (TROP2 ++), ADC at DAR 4.3” value was 2.22 nM and the “IC50 (nM), in vitro cytotoxicity (CCK-8, 72 h), NCI-N87 cells (TROP2 ++/+), ADC at DAR 3.0” value was 6.43 nM.

B6: Anti-Trop-2-SMCC-DM1 (antibody, V domains shown)
VH: B1 VH
VL: B1 VL
modifications: SMCC-DM1 on lysines; positions not given; DAR 4
In the case of B6, the “IC50 (nM), in vitro cytotoxicity (CCK-8, 72 h), BxPC-3 cells (TROP2 +++), ADC at DAR 4” value is reported as 1.01 nM, the “IC50 (nM), in vitro cytotoxicity (CCK-8, 72 h), Colo205 cells (TROP2 +), ADC at DAR 4” value is reported as 56.4 nM and the “IC50 (nM), in vitro cytotoxicity (CCK-8, 72 h), MDA-MB-468 cells (TROP2 ++), ADC at DAR 4” value is reported as 4.88 nM. For the same binder, the “IC50 (nM), in vitro cytotoxicity (CCK-8, 72 h), NCI-N87 cells (TROP2 ++/+), ADC at DAR 4” value was 2.88 nM.

B7: Anti-Trop-2-BI-P206 (antibody, V domains shown)
VH: B1 VH
VL: B1 VL
modifications: BI-P206 maytansinoid drug-linker on cysteines; positions not given; DAR 3.6 or 4.5
In the case of B7, the “IC50 (nM), in vitro cytotoxicity (CCK-8, 72 h), BxPC-3 cells (TROP2 +++), ADC at DAR 3.6” value is reported as 0.99 nM, the “IC50 (nM), in vitro cytotoxicity (CCK-8, 72 h), MDA-MB-468 cells (TROP2 ++), ADC at DAR 4.5” value is reported as 2.66 nM and the “IC50 (nM), in vitro cytotoxicity (CCK-8, 72 h), NCI-N87 cells (TROP2 ++/+), ADC at DAR 3.6” value is reported as 125 nM.

B8: Anti-Trop-2-Vc-MMAE (antibody, V domains shown)
VH: B1 VH
VL: B1 VL
modifications: vc-MMAE drug-linker; conjugation site not stated; DAR 4
In the case of B8, the “IC50 (nM), in vitro cytotoxicity (CCK-8, 72 h), BxPC-3 cells (TROP2 +++), ADC at DAR 4” value is reported as 0.51 nM, the “IC50 (nM), in vitro cytotoxicity (CCK-8, 72 h), Colo205 cells (TROP2 +), ADC at DAR 4” value is reported as 0.68 nM and the “IC50 (nM), in vitro cytotoxicity (CCK-8, 72 h), MDA-MB-468 cells (TROP2 ++), ADC at DAR 4” value is reported as 0.54 nM. For the same binder, the “IC50 (nM), in vitro cytotoxicity (CCK-8, 72 h), NCI-N87 cells (TROP2 ++/+), ADC at DAR 4” value was 0.49 nM.
